B1: Cyk4 (1–177): Cyk4 construct (residue 1–177) containing the coiled-coil domain and a portion of the disordered region (protein, UniProt Q9H0H5 1-177, looked up, fragment)
chain: MDTMMLNVRNLFEQLVRRVEILSEGNEVQFIQLAKDFEDFRKKWQRTDHELGKYKDLLMKAETERSALDVKLKHARNQVDVEIKRRQRAEADCEKLERQIQLIREMLMCDTSGSIQLSEEQKSALAFLNRGQPSSSNAGNKRLSTIDESGSILSDISFDKTDESLDWDSSLVKTFKL
B2: pCyk4 (1–177): Cyk4 (1–177) phosphorylated in vitro by Plk1 (protein)
chain: GSMDTMMLNVRNLFEQLVRRVEILSEGNEVQFIQLAKDFEDFRKKWQRTDHELGKYKDLLMKAETERSALDVKLKHARNQVDVEIKRRQRAEADCEKLERQIQLIREMLMCDTSGSIQLSEEQKSALAFLNRGQPSSSNAGNKRLSTIDESGSILSDISFDKTDESLDWDSSLVKTFKL
modifications: phosphorylated by Plk1: mono- to pentakis-phosphorylated forms, no unphosphorylated form; sites of the tetrakis form S149, S157, S164 and S170; left off: GST, N-terminal, cleaved
notes: Cyk4 (1–177) phosphorylated in vitro by Plk1

Test system: GST-B′γ1
Experiment: Titration pull-down of Cyk4 / pCyk4 by immobilized GST-B′γ1
Assay type: binding
Details: 10 μg immobilized GST-B′γ1
Experimental: Next, we thoroughly examined Cyk4 phosphorylation sites by MS and the effect of each phosphorylation on B′ binding. […] Upon phosphorylation in vitro by Plk1, the interaction can be detected with Cyk4 concentration as low as 0.6 μM and the half maximum binding can be obtained with the concentration of pCyk4 (1–177) between 2.5 and 5 μM (Figure 4d). […] No unphosphorylated CyK4 is detected (Figure 4e, left panel). The most abundant species are 2pCyk4 and 3pCyk4 that correspond to bis- and tris-phosphorylated proteoforms, respectively (Figure 4e, left panel). Further tandem MS with collision-induced dissociation (CID) and electron capture dissociation (ECD) of 4pCyk4 pinpointed the four sites that are phosphorylated, S149, S157, S164 and S170 (Figure 4e, right panel). Phosphorylation at these four sites was previously reported collectively, but not simultaneously, in different studies. […] As 5pCyk4 represents a minor species of the pCyk4 (Figure 4e, left panel), we concluded that the increase of binding affinity between B′ and pCyk4 is largely contributed by phosphorylation at S149. […] These collectively confirmed that pCyk4 interacts with PP2A-B′ holoenzymes via the identified B′-binding motif that is responsive to primarily the Plk1 phosphorylation site at S149.
Approximately 10 μg of GST-tagged B′-binding motifs or GST-pCyk4 was bound to 10 μl of glutathione resin via GST tag. […]

| Molecule | concentration at which interaction with GST-B′γ1 can be detected |
| --- | --- |
| B1 | ≥ 20 µM |
| B2 | 0.6 µM |

Source: paper PMC5586252, “PP2A-B′ holoenzyme substrate recognition, regulation and role in cytokinesis” (Cell Discovery, 2017)
